Patent US20170267771A1 (BIONOVION HOLDING B V, published 2017)
One block for each molecule: values may come before it.

What was measured:
[1] = target: human CD27, full length, expressed on cells (CHO-K1.CD27, MCF-7, HEK293T, human T cells) (human) (UniProt P26842); assay: cell ELISA on CHO-K1.hCD27 cells
[2] = target: human CD27, full length, expressed on cells (CHO-K1.CD27, MCF-7, HEK293T, human T cells) (human) (UniProt P26842); assay: competition cell ELISA on CHO-K1.CD27 cells; competitor recombinant CD70 fusion protein (0.5 ug/ml)
[3] = target: recombinant soluble hCD27-Fc fusion protein (rhCD27/Fc chimera, R&D systems cat. no. 382-CD) (human) (UniProt P26842); assay: competition cell ELISA: rhCD27-Fc (0.5 ug/ml) preincubated with antibody, binding to CHO-K1.CD70 cells
[4] = target: recombinant soluble hCD27-Fc fusion protein (rhCD27/Fc chimera, R&D systems cat. no. 382-CD) (human) (UniProt P26842); assay: competition cell ELISA (CHO-K1.CD70 competition assay): antibody dilutions mixed with rhCD27-Fc chimera, mix put on CHO-K1.CD70 cells, bound CD27-Fc detected with anti-human Ig-HRP; blocked ligand: hCD70 on the cells
[5] = target: T1, human CD27, full length, expressed on cells (CHO-K1.CD27, MCF-7, HEK293T, human T cells) (human, UniProt P26842 20-260); assay: cell ELISA on CHO-K1.hCD27 cells
T1 construct: whole, on cells; Full length cDNA of hCD27 in pCI-neo (CHO-K1), a retroviral vector (MCF-7) or pcDNA3 (HEK293T); Also stands for native CD27 on human T cells in the functional rows; also called hCD27; CHO-K1.hCD27
T1 sequence (looked up): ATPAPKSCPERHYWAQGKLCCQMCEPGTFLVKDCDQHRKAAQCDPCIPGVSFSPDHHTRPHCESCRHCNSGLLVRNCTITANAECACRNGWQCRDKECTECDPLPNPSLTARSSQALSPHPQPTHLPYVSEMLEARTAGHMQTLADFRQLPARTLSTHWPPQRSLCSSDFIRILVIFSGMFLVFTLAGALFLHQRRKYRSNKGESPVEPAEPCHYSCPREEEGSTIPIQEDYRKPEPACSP
Description: Cell-based ELISA experiments using purified hCD27 antibodies were performed to determine binding activities of hCD27 to cellularly expressed hCD27. In this cell-ELISA, all incubation steps were followed by a wash step with PEST (PBS with 0.01% Tween 20). CHO-K1.hCD27 cells were seeded (40,000 cells/well) in tissue culture plates and incubated overnight at 37° C. The next day, culture medium was removed and cells were incubated for one hour with (dilutions of) purified antibodies at 37° C. Next, cells were washed with PBST and incubated for one hour at 37° C. with 1:1,000 goat-anti-mouse IgG-HRP (Southern Biotechnology, # 1030-05). Subsequently, cells were washed 6 times with PBST and anti-hCD27 immunoreactivity was visualized with 100 μl TMB Stabilized Chromagen (Invitrogen, cat. no. SB02). Reactions were stopped with 100 μl 0.5 M […] and absorbances were read at […] and 620 nm. […] Calculated EC₅₀, representing the concentration at which 50% of the total binding signal is observed are represented in Table 1.

[6] = target: T2, mouse CD27, full length, expressed on retrovirally transduced MCF-7 cells (mouse, UniProt P41272 24-250); assay: flow cytometry on MCF-7 cells transduced with mouse CD27
T2 construct: whole, on cells
T2 sequence (looked up): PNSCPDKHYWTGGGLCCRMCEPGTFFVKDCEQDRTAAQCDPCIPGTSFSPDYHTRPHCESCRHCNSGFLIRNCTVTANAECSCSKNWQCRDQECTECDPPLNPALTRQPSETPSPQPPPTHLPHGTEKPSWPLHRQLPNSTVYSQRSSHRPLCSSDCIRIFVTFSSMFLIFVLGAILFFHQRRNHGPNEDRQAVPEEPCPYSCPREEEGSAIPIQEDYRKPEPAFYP
Description: Binding of hCD27 antibodies to mouse CD27 was determined using MCF-7 breast carcinoma cells that had been retrovirally transduced to stably express the full length cDNA encoding human CD27 or mouse CD27. Empty vector-transduced cells served as a control. Binding of the antibodies was tested by flow cytometric analysis, with validated agonistic anti-hCD27 antibodies 1A4 and CLB CD27/1; and anti-mouse CD27 LG.3A10 (Gravestein et al., 1995, Int Immunol. 7:551-7) as positive controls. These commercially available anti-hCD27 antibodies, which have been reported to harbor agonistic activities, were obtained as described in Table 2.

[7] = target: T3, recombinant soluble hCD27-Fc fusion protein (rhCD27/Fc chimera, R&D systems cat. no. 382-CD) (human, UniProt P26842 21-192); assay: SPR (Biacore 2000), antibody amine-coupled to chip, rhCD27Fc chimera as analyte, 1:1 Langmuir fit
T3 construct: Bought reagent; Fc part of the bought chimera not given
T3 sequence (looked up): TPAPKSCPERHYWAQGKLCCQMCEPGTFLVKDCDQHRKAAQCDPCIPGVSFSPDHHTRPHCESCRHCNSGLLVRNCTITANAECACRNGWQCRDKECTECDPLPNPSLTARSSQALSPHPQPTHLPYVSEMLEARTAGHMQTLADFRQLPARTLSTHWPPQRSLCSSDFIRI
Description: The binding properties of hCD27.15 antibodies were characterized in more detail using label-free surface plasma resonance using Biacore 2000 equipment. Low amounts of antibodies were coupled to a CMS sensor chip using amine coupling at pH=4.5, with Rₘₐₓ not exceeding 100 RU. This will, in combination with a high flow level (30 μl/min) yield good fits to the 1:1 Langmuir binding model. A concentration series of rhCD27Fc chimera, ranging from 0.016 nM to 1 nM, was injected for 1 minute at 30 μl/min. The dissociation was monitored for 5 minutes. The running buffer is HEPES-buffered saline with 3 mM EDTA and 0.005% P20 (HBS-EP), pH 7.4. Combination plots were made by subtraction of the signal obtained at the blank flow cell, using BIAeval 3.2. The sensor grams were fitted to a 1:1 Langmuir binding model.

[8] = target: T1, human CD27, full length, expressed on …; assay: competition cell ELISA on CHO-K1.CD27 cells; competitor recombinant CD70 fusion protein (0.5 ug/ml)
Description: The CHO-K1.CD27 assay works along the following principles: CHO-K1.CD27 cells were seeded (40,000 cells/well) in a 96-well plate and incubated overnight at 37° C. After medium removal, 50 μl recombinant mouse CD70 fusion Protein (Fc-mCD70) (0.5 μg/ml) and 50 μl of different dilutions of purified anti-hCD27 antibodies were added. […] A cDNA construct encoding this fusion protein was constructed as described by Rowley and Al-Shamkhani, 2004, J Immunol 15:172:6039-46 and used to produce Fc-mCD70 protein in 293T human embryonic kidney cells. The protein was purified by affinity chromatography on Protein A Sepharose (GE Health Care).

[9] = target: T3, recombinant soluble hCD27-Fc fusion …; assay: competition cell ELISA: rhCD27-Fc (0.5 ug/ml) preincubated with antibody, binding to CHO-K1.CD70 cells
Description: Blocking properties of the purified antibodies were studied using two competition assays. The CHO-K1.CD70 assay works along the following principles: CHO-K1.CD70 cells were seeded in a 96 well plate at a density of 40,000 cells/well. The same amount of plates was blocked by adding 300 μl medium/well, and all plates were incubated overnight at 37° C. The following day, the medium-only containing plates were emptied by flicking the plate, and 50 μl/well rhCD27-Fc chimera (0.5 μg/ml) (R&D systems cat. no. 382-CD) was added. To these plates, 50 μl of different dilutions of purified hCD27.15 antibodies were added. After 1 hour incubation at room temperature, the 100 μl rhCD27Fc/antibody mix was transferred to the CHO-K1/CD70 plate(s) from which the medium had been removed. These plate(s) were incubated for 1 hour at room temperature and then washed 3 times with PB ST. 100 μl anti-human Ig (H+L)-HRP conjugate (1:2,500) was added to every well (Promega, cat. no. W4031) and the plates were incubated for 1 hour at 37° C. After 6 final washes with PBST TMB Stabilized Chromagen (Invitrogen, cat. no. SB02) (100 μl/well) was added and the ELISA was read out as outlined above. […] Calculated IC₅₀ values of hCD27.15 and the positive control 1A4, which represent the concentration at which half of the inhibition is observed, are presented in Table 1.

EC50 [1]: 0.033 µg/mL
IC50 [2]: 0.0937 µg/mL
IC50 [3]: 0.37 µg/mL
Molecule: anti-hCD27, clone 1A4 (Beckman Coulter, cat. no. IM2034) (antibody)

IC50 (read off the curve) [4]: 0.2 µg/mL
Molecule: anti-hCD27, clone 57703 (R&D systems, cat. no. MAB382) (antibody)

EC50 [5]: 0.686 µg/mL
binding result [6]: no binding
Kd [7]: 122 nM
IC50 [8]: 0.864 µg/mL
IC50 [9]: 1.55 µg/mL
B1: monoclonal antibody hCD27.15 (hybridoma hCD27.15, ATCC PTA-11008) (antibody, mouse IgG1, V domains shown)
VH: EVRLQQSGADLVKPGASVKLSCTASGFIIKATYMHWVRQRPEQGLEWIGRIDPANGETKYDPKFQVKATITADTSSSTAYLQLNSLTSDDTAVYYCARYAWYFDVWGAGTTVTVSS
VL: DIQMTQSPASLSASVGDTVTITCRASENIYSFLAWYHQKQGRSPQLLVYHAKTLAEGVPSRFSGSGSGTQFSLKINSLQAEDFGSYYCQHYYGSPLTFGAGTKLEVK
notes: Mouse antibody purified from hybridoma; VH is joined to a mouse IgG1 constant region and VL to the kappa constant region; also called hCD27.15 mAb; anti-hCD27 antibody hCD27.15
